First the molecules themselves.
B1: VHH antibody Re6A11 (VHH)
VHH: QVQLVESGGGLVQAGGSLRLSCAASGRTFSNDALGWFRQAPRKEREFVAAINWNSGTYYADSVKGRFTISRDNAKNTVYLQMNSLKPEDTAVYSCAAASDYGLPREDFLYDYWGQGTLVTVSS
B2: VHH antibody Re9F06 (VHH)
VHH: B1 VHH with L118Q
B3: VHH antibody Re7E02 (VHH)
VHH: QVQLVESGGGLVQAGGSLRLSCAASGFTLDYYAIGWFRQAPGKEREGVSYIRSSDGTTYYADSVKGRFTISRDNAKNTVYLQMNSLKPEDTAVYYCAADEAYYSELGWESPWGWSYWGQGTQVTVSS
B4: VHH antibody Re6B07 (VHH)
VHH: B3 VHH with A14P, Q122R
B5: VHH antibody Re11H04 (VHH)
VHH: QVQLVESGGGLVQPGGSLRLSCAASGFTLDYYTIAWFRQAPGKEREGVSCISGNDGSTYYADSVKGRFTISRDNAKNTVYLQMNSLKPEDTAVYYCAADRGESYYPFRPSEYHYWGQGTQVTVSS
B6: VHH antibody Re9G12 (VHH)
VHH: QVQLVESGGGLVQAGGSLRLSCAASGRTFSSYVMGWFRQAPGKEREFVAHISWSGDSTYYADSVKGRFTIFRDNAKNTAYLQMNSLKPEDTAVYYCAADRGASYYYTWASEYNYWGQGTQVTVSS
B7: VHH antibody Re9D02 (VHH)
VHH: QVQLVESGGGLVQAGGSLRLSCAASGRTFSNYAMGWFRQAPGKEREFVAAISWGGDTTYYADSLKGRFTISRDNAKNTVYLQMNSLKPEDTAVYYCAADRGLSYYYDRVTEYDYWGQGTQVTVSS
B8: VHH antibody Re9C07 (VHH)
VHH: QVQLVESGGGLVQAGGSLRLSCAASGRTFSRYAMGWFRQAPGKEREFVAAITWNADTTYYADSVKGRFTISRDNAKNTVYLQMNSLKPEDTAVYYCAAGGNHYYSRSYYSSLEYDHWGQGTQVTVSS

Positions count from the first letter of the chain named.

The assay concerns the target SARS-CoV-2 RBD (correctly folded, co-expressed with fold-promoting VHH in E. coli) (SARS-CoV-2, UniProt P0DTC2 330-527). Kind of assay: co-expression in E. coli, co-purification and gel filtration.
As for B1, the binding result is on record as “binds”.
For B2 the value was “binds”; for B3, “binds”; for B4, “binds”.
With B5 the entry was “binds”; with B6, “binds”.
For B7, the binding result was “binds”.
For B8 the value was “binds”.

The values above are taken from US20240173398A1 (MAX PLANCK GESELLSCHAFT ZUR F RDERUNG DER WISSENSCHAFTEN E V, published 2024).
